Experimental findings from article PMC4166039 are described below.

What all share (assay): cross-linking
Experiment [1] concerns the target hamster IgG1 anti-CD3E antibody (145-2C11) (hamster).
Experiment [2] has as its target human IgG1 (human) [IgG part: P01857].
In experiment [3] the target is human IgG2 isotype control antibody (human) [IgG part: P01859].
Experiment [4] has as its target human IgG4 isotype control antibody (human) [IgG part: P01861].
For experiment [5], the target named is human IgG1 (human) [IgG part: P01857]. This is another data set of the same source.
Experiment [6] concerns the target mouse IgG1 (mouse) [IgG part: P01868].
Experiment [7] addresses rat IgG1 isotype control antibody (rat).
The target in experiment [8] is mouse IgG1 (mouse) [IgG part: P01868]. The source holds these as a separate data set.
Experiment [9] has as its target mouse IgG2a (mouse).
Experiment [10] has as its target mouse IgG2b isotype control antibody (mouse) (UniProt P01867).
Experiment [11] addresses mouse IgG3 (mouse).
Experiment [12] concerns the target rat IgG2b anti-ICAM1 antibody (YN-1) (rat) (UniProt P20761).
Chain of UniProt P20761 (P20761 whole entry, looked up): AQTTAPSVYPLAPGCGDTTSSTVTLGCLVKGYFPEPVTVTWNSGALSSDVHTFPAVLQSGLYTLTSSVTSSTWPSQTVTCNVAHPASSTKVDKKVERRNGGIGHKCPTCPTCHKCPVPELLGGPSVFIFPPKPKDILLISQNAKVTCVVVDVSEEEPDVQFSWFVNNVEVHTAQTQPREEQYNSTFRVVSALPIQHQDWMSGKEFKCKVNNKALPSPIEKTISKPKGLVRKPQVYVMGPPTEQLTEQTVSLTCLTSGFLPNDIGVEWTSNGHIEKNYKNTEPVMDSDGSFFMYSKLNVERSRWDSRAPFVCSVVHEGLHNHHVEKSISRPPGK
The target of experiment [13] is rat IgG2c isotype control antibody (rat) (UniProt P20762).
Chain of UniProt P20762 (P20762 whole entry, looked up): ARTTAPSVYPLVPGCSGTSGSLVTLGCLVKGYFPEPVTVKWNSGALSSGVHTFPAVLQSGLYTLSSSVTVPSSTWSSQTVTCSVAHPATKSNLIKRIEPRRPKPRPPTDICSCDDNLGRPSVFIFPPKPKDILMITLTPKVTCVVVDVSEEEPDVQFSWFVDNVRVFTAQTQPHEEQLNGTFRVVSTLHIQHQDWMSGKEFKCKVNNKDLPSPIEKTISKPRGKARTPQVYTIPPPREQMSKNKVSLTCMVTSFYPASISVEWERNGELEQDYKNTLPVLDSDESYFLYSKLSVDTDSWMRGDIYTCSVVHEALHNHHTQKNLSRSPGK

Where two headings read alike, the source gives them in different places.

On to “Protein Z K35BPA variant (designed binder)”, for which the percent of heavy chains cross-linked (1 h UV) in experiment [1] amounted to 30%; in [2], 47%; in experiment [3], 17%; in experiment [4], 50%; in [5] it was 50%. Moreover, the percent of heavy chains cross-linked (2 h UV) in experiment [2] is greater than 55%. Moreover, the percent of intact IgG cross-linked (1 h UV) in experiment [2] came out at 60%. For the same substance, the percent of intact IgG cross-linked (2 h UV) in experiment [2] is greater than 70%.
Consider “Protein Z Q32BPA variant (designed binder)”, for which the percent of heavy chains cross-linked (1 h UV) came to 20% in experiment [1]; 37% in [2]; 12% in [3]; 50% in experiment [6]; 10% in experiment [7]; 50% in experiment [8]. In experiment [6], the percent of heavy chains cross-linked (2 h UV) was greater than 55%. In [6], this substance had a percent of intact IgG cross-linked (1 h UV) of 60%. For the same substance, the percent of intact IgG cross-linked (2 h UV) in experiment [6] was greater than 70%.
In experiment [9], “Protein Z L17BPA variant (designed binder)” displayed a percent of heavy chains cross-linked (1 h UV) of 60%. Further, the percent of heavy chains cross-linked (1 h UV) in experiment [10] was determined as 71%. In addition, in experiment [11], the percent of heavy chains cross-linked (15 min UV) was greater than 70%, the percent of heavy chains cross-linked (1 h UV) worked out at 80%, the percent of heavy chains cross-linked (2 h UV) stood at 90% and the percent of intact IgG cross-linked (15 min UV) turned out to be 90%. In addition, in [11], the percent of intact IgG cross-linked (1 h UV) was greater than 95% and the percent of intact IgG cross-linked (2 h UV) was greater than 96%. In [12], this substance came in with a percent of heavy chains cross-linked (1 h UV) of 20%. The percent of heavy chains cross-linked (1 h UV) in experiment [13] was determined as 60%.
For “Protein Z K35BPA variant with the background F5I mutation (designed binder)”, the percent of heavy chains cross-linked (1 h UV) in experiment [1] stood at 37%.
